According to PMC11201429:

Biological target: thrombin (human alpha-thrombin not specified) (human, UniProt P00734;P00734 328-363;364-622)
Test: QCM-D; aptamer immobilised on streptavidin/biotin-PE/POPC bilayer; thrombin 1-25 ug/mL, shift 3 to 81 Hz; LOD 29 nM (not a Kd); PBS with CaCl2 and MgCl2 (concentrations not given), 0.1% BSA, 37 C; aptamer 0.5 uM loaded, heated to 95 C for 5 min and cooled to RT

CGCCTAGGTTGGGTAGGGTGGTGGCG (structured_DNA, 5'-biotin) [NU172 thrombin aptamer]
binding result: binds
